This passage reports protein stability index results from the supplement of paper PMC10567573.

± gives the standard deviation.

The data set in a line: protein stability index of a GFP-peptide fusion (GPS, HEK-293T) (PSI 1-6); higher = more stable. Particulars: c terminus: a fixed tail appended.
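Further: 24-mer peptide tiles fused after GFP, lentivirally expressed, FACS-sorted into six equal bins by GFP/DsRed ratio, decoded by Illumina sequencing, PSI is the read-weighted mean bin number.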

On to DLFGWSQLIYNHITTRVNSEQEHF [ADD1], for which the protein stability index reads like this: (treatment: DMSO) 2.72 ± 0.51; (treatment: MLN4924 1 uM, 8 h) 2.55 ± 0.41.

For SLRTLKPEGNILRDRFKSFQRRNM [NOP53], the protein stability index by setting is: (treatment: DMSO) 3.22 ± 0.23; (treatment: MLN4924 1 uM, 8 h) 3.21 ± 0.21.

In the case of FSKASSSLQLVFGIELMEVDPIGH [MAGEA3], the protein stability index is, setting by setting: (treatment: DMSO) 2.62 ± 0.6; (treatment: MLN4924 1 uM, 8 h) 2.29 ± 0.46.

For the sequence FLYMLMEYVPGGELFSYLRNRGRF [PRKX], the protein stability index is, setting by setting: (treatment: DMSO) 2.75 ± 0.29; (treatment: MLN4924 1 uM, 8 h) 2.42 ± 0.28.

Regarding FVESSGGGSSAVGQFVSLDGAGKT [BRF1], the protein stability index came out at 2.94 ± 0.52 (treatment: DMSO) and 3.44 ± 0.58 (treatment: MLN4924 1 uM, 8 h).

Turning to TMLIVHHRTHTGERPYGCDECEKA [ZNF649], the protein stability index runs as follows: (treatment: DMSO) 3.75 ± 0.32; (treatment: MLN4924 1 uM, 8 h) 3.7 ± 0.49.

For EQRDQLERTKSRLVNTSENLSKSR [VTI1B], the protein stability index runs as follows: (treatment: DMSO) 5.18 ± 0.31; (treatment: MLN4924 1 uM, 8 h) 5.01 ± 0.18.

Consider SGKSEISELRRTMQALEIELQSQL [KRT17], for which the protein stability index was determined as 3.58 ± 0.35 (treatment: DMSO) and 3.68 ± 0.15 (treatment: MLN4924 1 uM, 8 h).

Turning to SLDKRQGEGLRIYWGSPEEQSLLS [TPRG1], the protein stability index was found to be 2.77 ± 0.15 (treatment: DMSO) and 2.85 ± 0.39 (treatment: MLN4924 1 uM, 8 h).

Regarding VSMLGYPFILPDMVGGNAVPQRTA [MYORG], the protein stability index (treatment: DMSO) was 2.25 ± 0.42 and the protein stability index (treatment: MLN4924 1 uM, 8 h) was determined as 2.54 ± 0.32.

With EADKNDKAVKDLVVLLFETALLSS [HSP90AB1], the protein stability index by setting is: (treatment: DMSO) 2.13 ± 0.067; (treatment: MLN4924 1 uM, 8 h) 2.2 ± 0.39.

Turning to CSHSFLLAVMGYDRYIAICNPLRY [OR10K2], the protein stability index was 2.87 ± 0.52 (treatment: DMSO) and 2.88 ± 0.58 (treatment: MLN4924 1 uM, 8 h).

Turning to AYIQCQFEDLNKRKDTKEIYTHFT [GNAI1], the protein stability index by setting is: (treatment: DMSO) 2.14 ± 0.49; (treatment: MLN4924 1 uM, 8 h) 2.25 ± 0.3.

For the sequence KFDVLRAIELFHSYRETRRKEGIV [PTPN9], the protein stability index runs as follows: (treatment: DMSO) 2.35 ± 0.079; (treatment: MLN4924 1 uM, 8 h) 1.91 ± 0.42.

For PLHVAQTRLYLRSHRPNMELCRDA [TEKT4], the protein stability index is, setting by setting: (treatment: DMSO) 2.9 ± 0.17; (treatment: MLN4924 1 uM, 8 h) 3 ± 0.18.

On to GEDIPEKIKDEVHPEVKCVGSVAL [C8orf76], for which the protein stability index is 4.84 ± 0.39 (treatment: DMSO) and 4.81 ± 0.31 (treatment: MLN4924 1 uM, 8 h).

For the sequence LQAKQDGKKDVSHSSPVDLKIPQV [LCOR], the protein stability index by setting is: (treatment: DMSO) 4.94 ± 0.21; (treatment: MLN4924 1 uM, 8 h) 4.92 ± 0.06.

For RDCGEEMQNGAGASRTSTIFLNGN [TNXB], the protein stability index was 3.99 ± 0.56 (treatment: DMSO) and 4.34 ± 0.23 (treatment: MLN4924 1 uM, 8 h).

Turning to DAVTIPCGHTFCRLCLPALSQMGA [TRIM15], the protein stability index (treatment: DMSO) came to 2.47 ± 0.35 and the protein stability index (treatment: MLN4924 1 uM, 8 h) turned out to be 2.17 ± 0.27.

As to LQQLLVLQPEQQLNIYKTLKTHLI [CDS1], the protein stability index was found to be 2.4 ± 0.55 (treatment: DMSO) and 2.17 ± 0.36 (treatment: MLN4924 1 uM, 8 h).

With EPDNWMKEVMLFGHGTRKRVPLGR [RSAD1], the protein stability index by setting is: (treatment: DMSO) 3.69 ± 0.29; (treatment: MLN4924 1 uM, 8 h) 3.32 ± 0.15.

In the case of FEVPYYNRGLILYRLGYFDDALED [TTC32], the protein stability index was determined as 2.5 ± 0.44 (treatment: DMSO) and 2.23 ± 0.36 (treatment: MLN4924 1 uM, 8 h).

As for TAAFTTAKAAALSTKTPAPCSEFM [SPAG8], the protein stability index worked out at 3.67 ± 0.14 (treatment: DMSO) and 3.84 ± 0.24 (treatment: MLN4924 1 uM, 8 h).

Consider NHRLISEILSESVVPDVRSVVTTA [SMARCE1], for which the protein stability index is, setting by setting: (treatment: DMSO) 3.31 ± 0.26; (treatment: MLN4924 1 uM, 8 h) 3.17 ± 0.56.

On to DVLLLGNDYIVPRHCPELAEMSRV [HNF4A], for which the protein stability index runs as follows: (treatment: DMSO) 2.65 ± 0.2; (treatment: MLN4924 1 uM, 8 h) 2.49 ± 0.3.

Turning to AVHSGTPVTNNLLEKCKTLVSQSN [SPACA9], the protein stability index is, setting by setting: (treatment: DMSO) 3.76 ± 0.42; (treatment: MLN4924 1 uM, 8 h) 3.78 ± 0.39.

KFFFKSMDDDFGVVKEEISDDNAK [DVL3]: the protein stability index turned out to be 4.76 ± 0.19 (treatment: DMSO) and 4.81 ± 0.099 (treatment: MLN4924 1 uM, 8 h).

As to ALARKQAQEQLRPQTPEPVEGRKH [RSPH3], the protein stability index (treatment: DMSO) turned out to be 5.33 ± 0.18 and the protein stability index (treatment: MLN4924 1 uM, 8 h) is 5.31 ± 0.28.

VGVFLDFESGSVSFLNVTKSSLIW [TRIM43]: the protein stability index turned out to be 3.08 ± 0.73 (treatment: DMSO) and 2.506 ± 0.003 (treatment: MLN4924 1 uM, 8 h).

Regarding FDGRHSQTLKAMVQAWPFTCLPLG [PRAME], the protein stability index by setting is: (treatment: DMSO) 2.38 ± 0.48; (treatment: MLN4924 1 uM, 8 h) 2.24 ± 0.36.

For the sequence LFAIANGFSPSYEFFAVTRFLVGM [SLC22A15], the protein stability index reads like this: (treatment: DMSO) 3.06 ± 0.34; (treatment: MLN4924 1 uM, 8 h) 2.57 ± 1.3.

Sequence SKYENYFSASERLSLKRELSWYRG [HESX1] showed a protein stability index (treatment: DMSO) of 2.44 ± 0.26 and a protein stability index (treatment: MLN4924 1 uM, 8 h) of 2.31 ± 0.33.

EDVEAVQKLQDVLHEALQDYEAGQ [ESRRG] had a protein stability index (treatment: DMSO) of 4.92 ± 0.46 and a protein stability index (treatment: MLN4924 1 uM, 8 h) of 4.95 ± 0.51.

Regarding AMAAAEGSSGPAGLTLGRSFSNYR [SEPHS2], the protein stability index reads like this: (treatment: DMSO) 3.82 ± 0.16; (treatment: MLN4924 1 uM, 8 h) 3.63 ± 0.23.

AMKSVHENMDLNKIDDLMQEITEQ [CHMP4C] had a protein stability index (treatment: DMSO) of 4.7 ± 0.16 and a protein stability index (treatment: MLN4924 1 uM, 8 h) of 4.85 ± 0.52.

Take CHSFISGTAPLNQETAEFFLSLDI [ACSBG2]: the protein stability index reads like this: (treatment: DMSO) 3.01 ± 1.4; (treatment: MLN4924 1 uM, 8 h) 2.6 ± 1.6.
